From paper PMC3384721
Several values for one entry are separate records, joined by “and”; a condition that tells them apart may be missing. Equal entries are not always repeated.

Tests used:
[1] = molecular target: A4V mutant copper-zinc superoxide dismutase (A4VSOD1) (human) (UniProt P00441); experiment: atomic force microscopy
[2] = molecular target: A4V mutant copper-zinc superoxide dismutase (A4VSOD1) (human) (UniProt P00441); experiment: AUC

With “A4V mutant copper-zinc superoxide dismutase (A4VSOD1) (from UniProt P00441 6-154) (enzyme)” the stoichiometry N [1] was 4, the percent of total protein as dimer [2] was 31.7% and the percent of total protein as tetramer [2] was 37.6%. The stoichiometry N [2] was 2 and 4.
